Data published in IntAct's records for PubMed 11956294.

B1: Inducible T-cell costimulator (Homo sapiens), Q9Y6W8 (parent)
chain: MKSGLWYFFLFCLRIKVLTGEINGSANYEMFIFHNGGVQILCKYPDIVQQFKMQLLKGGQILCDLTKTKGSGNTVSIKSLKFCHSQLSNNSVSFFLYNLDHSHANYYFCNLSIFDPPPFKVTLTGGYLHIYESQLCCQLKFWLPIGCAAFVVVCILGCILICWLTKKKYSSSVHDPNGEYMFMRAVNTAKKSRLTDVTL
partner: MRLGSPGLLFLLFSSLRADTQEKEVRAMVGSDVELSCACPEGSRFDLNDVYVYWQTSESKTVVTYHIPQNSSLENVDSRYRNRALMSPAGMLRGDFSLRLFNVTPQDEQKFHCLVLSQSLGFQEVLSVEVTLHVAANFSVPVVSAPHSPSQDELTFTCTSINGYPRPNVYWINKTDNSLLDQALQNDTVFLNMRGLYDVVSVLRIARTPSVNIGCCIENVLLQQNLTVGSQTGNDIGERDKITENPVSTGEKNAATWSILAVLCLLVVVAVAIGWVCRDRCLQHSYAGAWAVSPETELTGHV

Variants of: B1
Conditions: with icosl_human ICOSLG
For D64S, the “effect of a mutation on the interaction” value was “decreasing interaction strength”.
K52S was tested, and the “effect of a mutation on the interaction” value was “increasing interaction strength”.
In the case of D115S, the “effect of a mutation on the interaction” value is reported as “disrupting interaction strength”.
With K67S the “effect of a mutation on the interaction” value was “disrupting interaction strength”.
For F51S, the “effect of a mutation on the interaction” value was “disrupting interaction strength”.
In the case of K69S, the “effect of a mutation on the interaction” value is reported as “disrupting interaction strength”.
With Q50S the “effect of a mutation on the interaction” value was “decreasing interaction strength”.
For Q49S, the “effect of a mutation on the interaction” value was “decreasing interaction strength”.
For S76E, the “effect of a mutation on the interaction” value was “increasing interaction strength”.
P117S was tested, and the “effect of a mutation on the interaction” value was “disrupting interaction strength”.
With F114S the “effect of a mutation on the interaction” value was “disrupting interaction strength”.
F119S was tested, and the “effect of a mutation on the interaction” value was “disrupting interaction strength”.
